From patent US20150299265A1 (Molecular Partners, published 2015) come the findings set out here.

Residue numbers refer to the chain shown, from its start.

B1: DARPin #50 (designed binder)
chain: MRGSHHHHHHGSDLGKKLLEAARAGQDDEVRILMANGADVNAKDKDGYTPLHLAAREGHLEIVEVLLKAGADVNAKDKDGYTPLHLAAREGHLEIVEVLLKAGADVNAQDKFGKTAFDISIDNGNEDLAEILQKLN
notes: also called negative control ankyrin repeat domain
B2: DARPin #41 (designed binder)
chain: MRGSHHHHHHGSDLGAKLLSDLGVKLLWAAARGQDDEVRILLAAGADVNAKDFQGITPLHIAAQSGHLEIVEVLLKAGADVNAKDVTGDTPLHLAAQHGHLVIVEVLLKAGADVNAQDERGWTPADLAADWGHEDIAEVLQKLGGGGSGGGGSRSDLGKKLLEAARAGQDDEVRILMANGADVNAKDEYGLTPLYLATAHGHLEIVEVLLKNGADVNAVDAIGFTPLHLAAFIGHLEIAEVLLKHGADVNAQDKFGKTAFDISIGNGNEDLAEILQKLN
B3: DARPin #16 (designed binder)
chain: MRGSHHHHHHGSDLGIKLLQAANLGQDDEVRELLKAGADVNAKDSIGQTPLHWAARRGHLEIVEVLLKAGADVNAKDEYGVTPLHLAASLGHLEIVEVLLKAGADVNAQDESGETPADLAALHGHEDIAEVLQKLN
notes: monovalent
B4: DARPin #17 (designed binder)
chain: B3 chain with I16L, E32I, K35A, E111T, S112A, E114Q, L122D, H123D, E130V
notes: monovalent
B5: DARPin #14 (designed binder)
chain: MRGSHHHHHHGSDLGAKLLIAATVGQDDEVRILLAAGADVNAKDTIGHTPLHRAAFVGQLEIVEVLLKAGADVNAQDDYGWTPADLAANSGHEDIAEVLQKLN
notes: monovalent
B6: DARPin #15 (designed binder)
chain: B5 chain with I20V, V24S, T45R, H48F, Q59H, Y79F, W81H, N89S, S90L
notes: monovalent
B7: DARPin #59 (designed binder)
chain: MRGSHHHHHHGSDLGVKLLWAAARGQDDEVRELLKAGADVNAKDFQGITPLHIAATNGHLEIVEVLLKAGADVNAKDITGETPLHHAADSGHLEIVEVLLKAGADVNAQDKAGVTPADLAAAWGHEDIAEVLQKLN
notes: monovalent
B8: DARPin #5 (designed binder)
chain: B7 chain with E32I, K35A
notes: monovalent
B9: DARPin #11 (designed binder)
chain: MRGSHHHHHHGSDLGIKLLFAASRGQDDEVRILLAAGADVNAKDFEGITPLHAAARSGHLEIVEVLLKAGADVNAKDVEGWTPLHYAASYGHLEIVEVLLKAGADVNAQDNHGATPADLAAQWGHEDIAEVLQKLN
notes: monovalent
B10: DARPin #12 (designed binder)
chain: MRGSHHHHHHGSDLGKKLLEAARAGQDDEVRILMANGADVNAKDFYGITPLHLAAAYGHLEIVEVLLKHGADVNAHDWNGWTPLHLAAKYGHLEIVEVLLKHGADVNAIDNAGKTPLHLAAAHGHLEIVEVLLKYGADVNAQDKFGKTAFDISIDNGNEDLAEILQKLN
notes: monovalent
B11: DARPin #9 (designed binder)
chain: MRGSHHHHHHGSDLGHKLLEAAVAGQDDEVRILLAAGADVNAKDWYGKTPLHFAAGLGHLEIVEVLLKAGADVNAKDEDGQTPLHLAAAYGHLEIVEVLLKAGADVNAQDNDGFTPADLAADSGHEDIAEVLQKLN
notes: monovalent
B12: DARPin #10 (designed binder)
chain: MRGSHHHHHHGSDLGVKLLWAASHGQDDEVRILLAAGADVNAKDFFGITPLHQAAWGHLEIVEVLLKAGADVNAKEEDGTTPLHLAATHGHLEIVEVLLKAGADVNAQDWYGTTPADLAAWWGHEDIAEVLQKLN
notes: monovalent
B13: DARPin #51 (designed binder)
chain: MRGSHHHHHHGSDLGNKLLIAASVGQDDEVRILLAAGADVNAKDETGWTPLHLAAAWGHLEIVEVLLKAGADVNAKDVKGQTPLHLAAAYGHLEIVEVLLKAGADVNAQDNDGYTPADLAARYGHEDIAEVLQKLN
notes: monovalent
B14: DARPin #21 (designed binder)
chain: MRGSHHHHHHGSDLGKKLLEAARAGQDDEVRILMANGADVNATDIHGHTPLHLAAAMGHLEIVEVLLKNGADVNANDWRGFTPLHLAALNGHLEIVEVLLKNGADVNATDTAGNTPLHLAAWFGHLEIVEVLLKNGADVNAQDKFGKTAFDISIDNGNEDLAEILQKLN
notes: monovalent
B15: DARPin #8 (designed binder)
chain: MRGSHHHHHHGSDLGIKLLWAAAHGQDDEVRILLAADADVNAKDWYGTTPLHIAAVAGHLEIVEVLLKAGADVNAKDDFGTTPLHLAAYHGHLEIVEVLLKAGADVNAQDWQGQTPADLAAQDGHEDIAEVLQKLN
notes: monovalent
B16: DARPin #52 (designed binder)
chain: B15 chain with I16V, L86A, Y89D, H90Y, W111Y, Q112T, Q114H, Q122V, D123Y, E130A
notes: monovalent
B17: DARPin #53 (designed binder)
chain: MRGSHHHHHHGSDLGAKLLWAAAKGQDDEVRILLAAGADVNAKDWEGVTPLHIAAHAGHLEIVEVLLKAGADVNAKDIIGWTPLHSAAVYGHLEIVEVLLKAGADVNAQDWYGTTPADLAAWWGHEDIAVVLQKLN
notes: monovalent
B18: DARPin #19 (designed binder)
chain: MRGSHHHHHHGSDLGKKLLEAARAGQDDEVRELLKAGADVNAKDEYGLTPLYLATAHGHLEIVEVLLKNGADVNAVDAIGFTPLHLAAFIGHLEIAEVLLKHGADVNAQDKSGKTPADLAAGAGHEDIAEVLQKLN
notes: monovalent
B19: DARPin #20 (designed binder)
chain: B18 chain with N69A, H102A, S112F, L119I, H125N
notes: monovalent
B20: DARPin #7 (designed binder)
chain: MRGSHHHHHHGSDLGIKLLFAAAKGQDDEVRILLAAGADVNAKDFEGYTPLHVAAYDGHLEIVEVLLKAGADVNAKDSQGRTPLHEAAYSGHLEIVEVLLKAGADVNAQDDAGETPADLAAAWGHEDIAEVLQKLN
notes: monovalent
B21: DARPin #18 (designed binder)
chain: MRGSHHHHHHGSDLGKKLLEAARAGQDDEVRILMANGADVNAKDEYGLTPLYLATAHGHLEIVEVLLKNGADVNAVDAIGFTPLHLAAFIGHLEIAEVLLKHGADVNAQDKFGKTAFDISIGNGNEDLAEILQKLN
notes: monovalent

The first assay deals with T1, Recombinant human HER2 ectodomain (human, UniProt P04626 23-652, biotinylated on primary amines (for SPR and crude extract ELISA)).
T1 construct: extracellular domain; also called ErbB2; ectodomain of human HER2; not shown: Flag tag
Nature of the assay: ELISA on plate-coated full length HER2 (domain I-IV), detection by anti-RGS-His antibody; with and without 500 nM soluble HER2 domain I or domain I-III. Background: An ELISA detects its analyte on a solid surface through an enzyme-linked reagent.
With B1, the binding result is recorded as “no binding (tested: 20 nM (not printed on the sheet))”.

Another assay deals with T2, Human HER2 expressed on tumour cells (human, UniProt P04626 23-1255). Put plainly: cell-based or functional assay.
B2: the “IC50, inhibition of BT474 proliferation (single experiment of FIG. 2A)” value is approximately 2 nM.

The target in the next assay is T1, Recombinant human HER2 ectodomain. Nature of the assay: SPR (ProteOn); biotinylated human HER2 on neutravidin chip, monovalent DARPin injected. Here is the method:
Protein binding kinetics of interesting purified HER2-binding DARPins were assayed by Surface Plasmon Resonance (SPR) analysis with a ProteOn array system (BioRad) using a setup, where biotinylated human HER2 was immobilized via neutravidin and the interaction was measured by adding free monovalent DARPin. The determination of Kd values was performed according to standard procedures.
SPR was measured using a ProteOn instrument (BioRad) and measurement was performed according standard procedures known to the person skilled in the art. The running buffer was PBS, pH 7.4, containing 0.005% Tween 20®. Neutravidin was covalently immobilized on a GLC chip (BioRad) to a level of about 8000 resonance units (RU). Immobilization of HER2 on the neutravidin coated chip was then performed. […] The signals (i.e. resonance unit (RU) values) of an uncoated reference cell and a reference injection (i.e. injection of running buffer only) were subtracted from the RU traces obtained after injection of […] (double-referencing). From the SRP traces obtained from the on-rate and off-rate measurements the on- and off-rate of the corresponding DARPin HER2 interaction can be determined.
Dissociation constants (Kd) were calculated from the estimated on- and off-rates using standard procedures known to the person skilled in the art.
The term Kd denotes the constant that tells how readily two partners part at equilibrium. As for B3, the Kd was 2.67 nM.

Turning to B4, the Kd turned out to be 2.3 nM.

With B5, the Kd amounted to 1.88 nM.

On to B6, for which the Kd came to 0.468 nM.

Regarding B7, the Kd worked out at 0.0333 nM.

Consider B8, for which the Kd was 0.0708 nM.

On to B9, for which the Kd turned out to be 0.256 nM.

Turning to B10, the Kd was 1.41 nM.

For B11, the Kd was determined as 0.417 nM.

For the molecule B12, the Kd amounted to 1.03 nM.

Turning to B13, the equilibrium dissociation constant (Kd) came out at 1.3 nM.

As to B14, the Kd was determined as 1.65 nM.

On to B15, for which the Kd worked out at 0.483 nM.

In the case of B16, the Kd was determined as 0.137 nM.

B17: the Kd is 1.46 nM.

For B18, the Kd came to 0.944 nM.

Consider B19, for which the Kd is 0.258 nM.

On to B20, for which the Kd stood at 1.03 nM.

Turning to B21, the Kd came to 0.335 nM.

A further assay deals with T2, Human HER2 expressed on tumour cells. Nature of the assay: cell-based or functional assay. The source holds these as a separate data set.
Consider B2, for which the “% activity vs. DARPin # 41, BT474 cell proliferation” value was found to be 100% and the “IC50 [nM], inhibition of BT474 cell proliferation (BrdU)” value was 4.01 nM.
